In paper PMC6698960, “Isolation and Characterization of Nanobodies against a Zinc-Transporting P-Type ATPase” (Antibodies, 2018):
Like-named read-outs stand apart in the source and are kept apart here.

Tests used:
[1] = target: T1, zinc-transporting PIB-ATPase ZntA from Shigella sonnei (Shigella sonnei (UniProt Q3YW59, strain …, UniProt Q3YW59))
[2] = target: T1, zinc-transporting PIB-ATPase ZntA from …; test: SEC; settings: both partners purified

T1 sequence (Q3YW59 whole entry, one chain of several): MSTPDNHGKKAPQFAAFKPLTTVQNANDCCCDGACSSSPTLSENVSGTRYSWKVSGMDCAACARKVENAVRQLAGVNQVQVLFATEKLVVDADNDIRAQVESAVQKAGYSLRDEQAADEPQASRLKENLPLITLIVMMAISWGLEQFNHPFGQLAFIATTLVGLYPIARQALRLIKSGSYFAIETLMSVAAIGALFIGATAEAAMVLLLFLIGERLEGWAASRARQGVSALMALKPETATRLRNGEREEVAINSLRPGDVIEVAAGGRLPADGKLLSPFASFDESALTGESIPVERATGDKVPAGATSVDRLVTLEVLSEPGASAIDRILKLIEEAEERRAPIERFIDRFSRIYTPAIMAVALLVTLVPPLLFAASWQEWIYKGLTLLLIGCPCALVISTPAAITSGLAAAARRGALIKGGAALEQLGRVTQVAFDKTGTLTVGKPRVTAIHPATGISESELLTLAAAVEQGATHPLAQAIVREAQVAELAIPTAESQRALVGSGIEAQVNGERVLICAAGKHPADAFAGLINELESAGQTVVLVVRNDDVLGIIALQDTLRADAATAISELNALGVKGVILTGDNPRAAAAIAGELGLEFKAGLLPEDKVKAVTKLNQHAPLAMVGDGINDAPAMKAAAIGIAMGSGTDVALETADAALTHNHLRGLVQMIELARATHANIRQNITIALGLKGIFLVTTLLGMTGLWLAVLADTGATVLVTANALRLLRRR

Binder	binding result [1]	binding result [2]
Nb6 (VHH) VHH: QLQLVETGGGLVQAGGSLRLSCAASGLIFSSYNMGWFRQAPGKEREFVGAIWSSSFTYLLDSVKGRFTISRDNAKNTVYLQMNSLKPEDTAVYYCAASRRLLTQGSAVSTTSYEYWGQGTQVTVSS	binds	–
Nb7 (VHH) VHH: QVQLVESGGGLVQAGGSLRLSCAASGLTFSAYNMGWFRQAPGKEREFVGAIWSSSFTYYLDSLKGRFTISRDNTKNTVYLQMNSLKPEDTAVYYCAAARRLLTQAGAVLTTSYEYWGQGTQVTVSS	binds	–
Nb10 (VHH) VHH: QVQLVESGGGLVQTGGSLRLSCAASGLTFSSYNMGWFRQAPGKEREFLGAIWSSGFTYYLDSVKGRFTISRDNAKNTVYLQMDSLKPEDTAVYYCAAARRLLTQAAAVMFNSYDYWGQGTRVTVSS	binds	–
Nb11 (VHH) VHH: QVQLVETGGGLVQAGDSLRLACAHSGRTFSTYAMGWFRQAPGKEREFVAAISGSGGTTIYADSVTGRFTISRDNTKNTVYLQMNSLKPEDTAVYSCAASQYYMGSRSTENYNVWGQGTQVTVSS	binds	–
Nb1 (VHH, also called nanobody 1; source: E. coli BL21, purified (Ni2+ beads, SEC); not shown: His6, C-terminal, kept) VHH: QVQLVESGGGLVQAGDSLRLSCAASGRTFSNYAMGWFRQAPGKEREFVAAISGGGGTTYYSDSVKGRFTISRDNAKSTVYLQMNSLKPEDTAVYFCASSTYYMPSRAADTYTYWGQGTQVTVSS	–	binds
Nb2 (VHH, also called nanobody 2; source: E. coli BL21, purified (Ni2+ beads, SEC); not shown: His6, C-terminal, kept) VHH: QLQLVETGGGLVQAGDSLRLSCAASGRTFSNYAMGWFRQAPGKEREFVAAISGGGGTTYYSDSVKGRFTISRDNAKSTVYLQMNSLKPEDTAVYFCASSTYYMPSRAADTYTYWGQGTQVTVSS	–	binds
Nb4 (VHH, also called nanobody 4; source: E. coli BL21, purified (Ni2+ beads, SEC); not shown: His6, C-terminal, kept) VHH: QVQLVESGGGVVQTGGSLRLSCAASGRTFSTYGMGWFRQAPGKEREFVAAISGSGGMTYYGDPVKGRFTISRDNAVNTVYLQMNNLKPEDTAVYICAVGAYYSGGSRAQNYEYWGQGTQVTVSS	–	binds
Nb5 (VHH, also called nanobody 5; source: E. coli BL21, purified (Ni2+ beads, SEC); not shown: His6, C-terminal, kept) VHH: QVQLVESGGGVVQTGGSLRLSCAASGRTFSTYGMGWFRQAPGKEREFVAAISGSGGMTYYGDPVKGRFTISRDNAVNTVYLQMNNLKAEDTAVYVCAVGAYYSGGSRAQNYEYWGQGTQVTVSS	–	binds
Nb8 (VHH, also called nanobody 8; source: E. coli BL21, purified (Ni2+ beads, SEC); not shown: His6, C-terminal, kept) VHH: QVQLVETGGGLVQAGGSLRLSCAASGRAFSSYGMGWFRQAPGKEREFVAAVSGSGATTIYADSVKGRFTISRDNAVNTVYLHMNDLKPDDTAVYYCAVGKYYSGSRQSHNYDYWGQGTQVTVSS	–	binds
Nb9 (VHH, also called nanobody 9; source: E. coli BL21, purified (Ni2+ beads, SEC); not shown: His6, C-terminal, kept) VHH: QLQLVESGGGVVQAGGSLRLSCAASGRTFSSYGMGWFRQAPGKEREFASAISGSGGSTYYADSVKGRFTISRDNAKNTVYLQMNSLKPEDTAVYYCARSRYYSGGRSLLEYDYWGQGTQVTVSS	–	binds
